{"source": "the DeepSol protein solubility set", "data": [{"assay": "soluble on expression in E. coli; label from the status in PepcDB or PDB records", "values": [{"sequence": "MAHHHHHHMKTFIGHFNNNALFSRNSFTNKSLRARKYTKNILSLKNLIYSSFFLYSTMNKVIGTHSGRFHTDEILATVMLKFLPEYKDAKIIRTRDQTKLDTCDIVVDVGGVYDHENKRYDHHQKEFEGTLDDKHTIRLSSAGLIYKHYGKEVLRKGFSITDEEKINVLYEKLYTSFIESVDALDNGINQYEGQPKYQINTTIQCRVNRFNPTFLEDDVDENERFMEAAKIVKQEFVHFVTYYSDVWYMAKSIVRESILDRFNFHKSGRVIYLQKYCPYTEHLYDLEQELNIQDEILYCIYSDRYNNFRCTAISKKNEPFVLRLPFPASFRGLKDEQLQTVSKIPGLTFVHYSGFTSAGENIESLVKLVEASLKENNIVY", "soluble on expression in E. coli": "not soluble"}, {"sequence": "MGKPMQVSRYWRHFREKYRLIGGKCENGHLLFPKRPICPICGSRNIEEFQFSGKGKVITWTIVRNPPSGFEYYKPYPLALVQLEEGPVVLAQLTDVEPEEIKEGMEVEMVTRKIREFDEDGLILYGYKFRPIIKSELEHHHHHH", "soluble on expression in E. coli": "soluble"}, {"sequence": "MGSSHHHHHHSSGLVPRGSHMSNQEAIGLIDSGVGGLTVLKEALKQLPNERLIYLGDTARCPYGPRPAEQVVQFTWEMADFLLKKRIKMLVIACNTATAVALEEIKAALPIPVVGVILPGARAAVKVTKNNKIGVIGTLGTIKSASYEIAIKSKAPAIEVTSLACPKFVPIVESNQYRSSVAKKIVAETLQALQLKGLDTLILGCTHYPLLRPVIQNVMGSHVTLIDSGAETVGEVSMLLDYFDIAHTPEAPTQPHEFYTTGSAKMFEEIASSWLGIENLKAQQIHLGGNEND", "soluble on expression in E. coli": "soluble"}, {"sequence": "MSLKILIIEDDLALARSISHNLHDLGHFCEIISSISEENKEPYDVILVSSKVCTQGRCEHFVRYNSKQIIIMMASHVNEDGVNKPIQAGARDYILKPFKMDELLRKIQYHKAYQEMTARLGFYENYLDFIHAELPLPKDFSYRPPFIIHTPSQELANAYLLQYAKERQMDFSFFSLKDTTWKELYKNKDKLERPFYIMHLEELKKDEQLKLLELARSCPIVLSYTHKEPLEFPKIVSIECGNKPLSLFNNHTTFLSIQEYEKEAIRHFSSTCTDTELANKLGISRKSLWEKRRKYNLPREGHHHHHH", "soluble on expression in E. coli": "soluble"}, {"sequence": "MVKERRTELVEGFRHSVPYINAHRGKTFVIMLGGEAIEHENFSNIVNDIGLLHSLGIRLVVVYGARPQIDANLAEHHHEPVYHKQTRVTDAKTLELVKQAAGMLQLEITARLSMSLNNTPLQGAHINVVSGNFIIAQPLGVDDGVDYCHSGRIRRIDEEAIHRQLDSGAIVLMGPVAVSVTGESFNLTSEEIATQLAIKLKAEKMIGFCSSQGVYNQAGEIVSELFPNEAQARVEELEADEDYNSGTVRFLRGAVKACRSGVRRCHLISYQENGALLQELFSRDGIGTQIVMESAEQIRRATINDIGGILELISPLEQQGILVRRSREQLEMEIDKFTIIQRDNTTIACAALYPFPEEKIGEMACVAVHPDYRSSSRGEVLLERIAAQARQMGLSKLFVLTTRSIHWFQERGFTPVDIDLLPESKKQMYNYQRRSKVLMADLA", "soluble on expression in E. coli": "not soluble"}, {"sequence": "MGSDKIHHHHHHMYTLNILKDSTAVMYEKMTFPAFQYVLQEINSKESLIAIAASYQEEPVGLVLAEIRTYNQSAEVLSLFVEPSHRCAGIGTNLLNRLETELTYRRCKKVELVYMTGKSTTPALENLLHKCGWTSPQPRMLVCKGEMEKGIQAPWLKQYSQLPAAYTIFPWREITTQERQAIERQQATQPWIPEDLIPFKYDKQIEPLNSLGLRYQGQVVGWLISHRIFPDTIRYTCAFCRPDIQKKGRMITLFYEAAKLQLNAKIPHFIWTTPMNHQSMVAFVKYRCLPYLTSIQETRIISKLLLG", "soluble on expression in E. coli": "not soluble"}, {"sequence": "MAKVSLEKDKIKFLLVEGVHQKALESLRAAGYTNIEFHKGALDDEQLKESIRDAHFIGLRSRTHLTEDVINAAEKLVAIGAFAIGTNQVDLDAAAKRGIPVFNAPFSNTRSVAELVIGELLLLLRGVPEANAKAHRGVWNKLAAGSFEARGKKLGIIGYGHIGTQLGILAESLGMYVYFYDIENKLPLGNATQVQHLSDLLNMSDVVSLHVPENPSTKNMMGAKEISLMKPGSLLINASRGTVVDIPALADALASKHLAGAAIDVFPTEPATNSDPFTSPLAEFDNVLLTPHIGGSTQEAQENIGLEVAGKLIKYSDNGSTLSAVNFPEVSLPLHVGRRLMHIHENRPGVLTALNKIFAEQGVNIAAQYLQTSAQMGYVVIDIEADEDVAEKALQAMKAIPGTIRARLLY", "soluble on expression in E. coli": "soluble"}, {"sequence": "MVIINTAAYHFVSITQPQTLADQIRAHGEIAGLKGTVLIANEGINLFLAGEKEAINAFYAWLCADVRFAALHVKYSVSAYKPFARFKVKVRPEIISFRRGDISPLQVRAPGVSAHTLRDWLRRGCDDNGRRLVMLDARNQQEIAYGTFSGAMTLPITKFTGFPGALAHYRDLLSDATVVSFCTGGIRCEKAVLWMRADGMDNVLQLEGGILGYFEQVGGEGYDGRCFVFDKRVALDPQLRPLYDMRVVASFARSEISLEHHHHHH", "soluble on expression in E. coli": "not soluble"}, {"sequence": "MSSDFPTDPYSTAQQKWLYQDHLVLPTLEKLLKYNLKDKKVLDIGCGNGLNSTTFLQWGARKVVGFDNSQEMIENCKNLHKSSEQSSFHHLNVTDFQLDEKFHVATAVFVLQYVHDKEELRKAIRLIWERKLRNGWFRLWMEDL", "soluble on expression in E. coli": "not soluble"}, {"sequence": "MLETETGRYSDTLRSALVSLDGDNAWALSESWCGTIQWICPSPYRPHHGRKNWFLGIGRFTADEQEQSDAIRYETLRSSGPGGQHVNKTDSAVRATHLASGISVKVQSERSQHANKRLARLLIAWKLEQQQQENSAALKSQRRMFHHQIERGNPRRTFTGMAFIEGLEHHHHHH", "soluble on expression in E. coli": "not soluble"}, {"sequence": "MDYSKIIKEVGRGKNHARDLDQPTAYALYKAMLAGQVPALELGGILIAFRIKGESEQEILGFYQAMQEQVMSLRAPVDRPLPVVIPSYNGARKQANLTPLLALLLSRLGLPVVVHGVTEDSSRVTSAEIFQQLNIPWSLSVQEAQQRLDNGLPVFIPVSALSMQLDQQLQQRWRMGVRNSSHTLAKLATPFTHDKALRVASVSHPEYMQKVGGFFQAISAPGLLLQGTEGEVYANPLRCPPIHYINDGEQTILLDRSSESVVPELPLSKDAVITARWIEGCLAGEQPIPDSILKQLACCLVAAGQADSVELALQQIKIV", "soluble on expression in E. coli": "not soluble"}, {"sequence": "MRYWLMKSEPSEVSIDDLAARPGQTVPWDGVRNYQARNFMRNQMQPGDLVFFYHSSCPEPGIAGVVEVSRLAYPDETQFDSASKYFDPKSTRENPRWFNVEVRFLRKTRLLSLRELRSYPELAGMRILQKGNRLSITPVDPSEWKFIEAKLQSLEHHHHHH", "soluble on expression in E. coli": "not soluble"}, {"sequence": "MAALRYAGLDDTDSEDELPPGWEERTTKDGWVYYANHTEEKTQWEHPKTGKRKRVAGDLPYGWEQETDENGQVFFVDHINKRTTYLDPRLAFTVDDNPTKPTTRQRYDGSTTAMEILQGRDFTGKVVLVTGANSGIGFETAKSFALHGAHVILACRNLSRASEAVSRILEEWHKAKVEAMTLDLAVLRSVQHFAEAFKAKNVSLHVLVCNAGTFALPWGLTKDGLETTFQVNHLGHFYLVQLLQDVLCRSSPARVIVVSSESHRFTDINDSSGKLDLSRLSPPRSDYWAMLAYNRSKLCNILFSNELHRRLSPRGVTSNAVHPGNMMYSAIHRNSWVYKLLFTLARPFTKSMQQGAATTVYCAVAPELEGLGGMYFNNCCRCLPSEEAQSEETARALWELSERLIQDRLGSPSS", "soluble on expression in E. coli": "soluble"}, {"sequence": "MSLAEIAYITAKADLPFWDTVGKGVKAVAEANGYAFSELDSKLSAEMQLNNVRQAIDRRVAGIVISPTNSKSAEEALILARRAKIPVAIADIGASGGDYVSFVKSDNYRGAYDVGTELAKAMKAQNWASGAYGMVTIELSRKNGQDRTNGFRDAMKDAGFPREIVLRQMKDYSAEETYRYVKEMLAAHPGLRGFFIETDQPVAGALRAIREAGKEKQLLLVSFDAMPDVVRLLKSGALVAVGMQQPYLMGSSAAGALVSRLRGHPPAKEILVPVLVATGRNVDQLMPVAARTVFGKPLKEGHHHHHH", "soluble on expression in E. coli": "soluble"}, {"sequence": "EMVKLQSVITGSMQTGRSRARIEQAVVALLTYVEEETDAFQILVRDMKAGQDHSYSTLLNDAVEQVSHILGQAFERSGLNPKNATLYAQALVGMVSMTAQWWLDRRKEPNAATKEQVAAHIVNLCWNGLAGMEANPQLSNIDSPPETLGAH", "soluble on expression in E. coli": "not soluble"}, {"sequence": "MDFKQYSPEELKECSMIEVVHSVLGDKKQATTFNELVQEIAQVLGLSQEQVNAKIAQFYTDLNIDGRFINLGENRWGLRSWYPYEQIDEEILPQPKPKKKRKVEEDGFDDYIDEDEDDFDDVDGNEDEDDDVEDLDKVLEDEDGDDDDLDDLDEDEDDFAEEELEYDETEEEEEEEL", "soluble on expression in E. coli": "not soluble"}, {"sequence": "ATVKQPSIGRYTGKPNPSTGKYTVSFIEGDGIGPEISKSVKKIFSAANVPIEWESCDVSPIFVNGLTTIPDPAVQSITKNLVALKGPLATPIGKGHRSLNLTLRKTFGLFANVRPAKSIEGFKTTYENVDLVLIRENTEGEYSGIEHIVCPGVVQSIKLITRDASERVIRYAFEYARAIGRPRVIVVHKSTIQRLADGLFVNVAKELSKEYPDLTLETELIDNSVLKVVTNPSAYTDAVSVCPNLYGDILSDLNSGLSAGSLGLTPSANIGHKISIFEAVHGSAPDIAGQDKANPTALLLSSVMMLNHMGLTNHADQIQNAVLSTIASGPENRTGDLAGTATTSSFTEAVIKRL", "soluble on expression in E. coli": "soluble"}, {"sequence": "MAKDIYKTFKRSVSGIVGGNNINGEGSSSPSTSAPQVKYRGGTGRTWIHPPDYLINGHVEYVARFLGCVETPKANGSDVAREAIHAIRFQRDLKRSEQTRETAKLQKVEIRISIDNVIIADIKTKAPMYTFPLGRISFCADDKDDKRMFSFIARAEGASGKPSCYAFTSEKLAEDITLTIGEAFDLAYKRFLDKNRTSLENQKQIYILKKKIVELETENQVLIERLAEALRANSKADYENTGPPIYPGLGPPALPLSPMPQGPPPNIPPSSIYSMPRANDLPPTEMAPTLPQISTSSNGASPSVSPASTSPSGPAPSIPPPRPPALAPPPPVAPRRNPVVSPKNSTAGLLDGLELGSAEPAKKAPSNIFDDSFDPRAGEKKSTAAEYNPFGADFLSGIQNGKEAPPSASAELLASEAIARLPKPESSSVPPKKTAAEYDAMINEVEKKLAAMSSGSFEFGQLQTGDLGGIEGESDYGTPSDRLNPKMMNLKQ", "soluble on expression in E. coli": "not soluble"}, {"sequence": "LGGNANAGLEVLKDATAQAIADAKALLAAGKVSVKIQEPCDEILFSRAKVWNGEKWACVTIVGGHTNIVHIETHNGVVFTQQACVTEGEQESPLTVLSRTTLAEILKFVNEVPFAAIRFILDSAKLNCALSQEGLSGNWGLHIGATLEKQCARGLLAKDLSSSIVIRTSAASDARMGGATLPAMSNSGSGNQGITATMPVVVVAEHFGADDERLARALMLSHLSAIYIHNQLPR", "soluble on expression in E. coli": "not soluble"}, {"sequence": "MLFDTHAHLNAEQYDTDLEEVIERAKAEKVERIVVVGFDRPTITRAMEMIEEYDFIYAAIGWHPVDAIDMTEEDLAWIKELSAHEKVVAIGEMGLDYHWDKSPKDIQKEVFRNQIALAKEVNLPIIIHNRDATEDVVTILKEEGAEAVGGIMHCFTGSAEVARECMKMNFYLSFGGPVTFKNAKKPKEVVKEIPNDRLLIETDCPFLTPHPFRGKRNEPSYVKYVAEQIAELKEMTFEEIASITTENAKRLFRINLEHHHHHH", "soluble on expression in E. coli": "not soluble"}, {"sequence": "MSLNLTIGTSKFNPPFEVWSGNNSSLYGFDIDLMQEICRRLHATCTFEAYIFDDLFPALKNREVDLVIASMIITDERKKHFIFSLPYMESNSQYITTVDSKISTFDDLHGKKIGVRKGTPYARQVLSENRNNQVIFYELIQDMLLGLSNNQVDASLMDYEAAKYWMASEPYAYKLIGKKYKLIGKKISIGEGYSIMANPDQFVLIKKINKILLEMEADGTYLRLYSEYFEGHHHHHH", "soluble on expression in E. coli": "soluble"}]}]}
